# Test results reported in patent US20220389118A1 (Chugai, published 2022).
# Where a chain is given by its changes, count along the chain named.
# T1: human FcγRIIa type R extracellular domain with C-terminal His tag (human, UniProt P12318 34-217)
# T1 construct: extracellular domain; also called FcγRIIaR; FcγRIIa(R)
# T1 sequence (looked up): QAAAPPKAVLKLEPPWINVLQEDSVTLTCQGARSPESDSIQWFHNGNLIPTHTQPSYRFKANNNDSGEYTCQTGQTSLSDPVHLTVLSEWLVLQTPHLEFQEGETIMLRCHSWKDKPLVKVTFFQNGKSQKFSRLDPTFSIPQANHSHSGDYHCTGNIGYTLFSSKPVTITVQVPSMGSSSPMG
# T2: human FcγRIIa type H extracellular domain with C-terminal His tag (human, UniProt P12318 34-217)
# T2 construct: extracellular domain; also called FcγRIIaH; FcγRIIa(H)
# T2 sequence (looked up): T1 sequence (looked up) with R134H
# T3: human FcγRIIb extracellular domain with C-terminal His tag (human, UniProt P31994 43-217)
# T3 construct: extracellular domain
# T3 sequence (looked up): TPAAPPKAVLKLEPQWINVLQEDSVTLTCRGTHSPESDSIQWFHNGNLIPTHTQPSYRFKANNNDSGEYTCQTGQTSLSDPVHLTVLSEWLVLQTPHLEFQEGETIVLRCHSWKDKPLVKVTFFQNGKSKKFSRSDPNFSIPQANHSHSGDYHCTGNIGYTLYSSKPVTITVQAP
# T4: human FcγRIIb extracellular domain with C-terminal His tag (human, UniProt P31994 43-217)
# T4 construct: extracellular domain; also called FcgRIIb
# T4 sequence (looked up): T3 sequence (looked up)
# B1: IL6R-BP262/IL6R-L (antibody, human IgG1, kappa)
# heavy: QVQLQESGPGLVKPSETLSLTCAVSGHSISHDHAWSWVRQPPGEGLEWIGFISYSGITNYNPSLQGRVTISRDNSKNTLYLQMNSLRAEDTAVYYCARSLARTTAMDYWGEGTLVTVSSASTKGPSVFPLAPSSKSTSGGTAALGCLVKDYFPEPVTVSWNSGALTSGVHTFPAVLQSSGLYSLSSVVTVPSSSLGTQTYICNVNHKPSNTKVDKKVEPKSCDKTHTCPPCPAPELLGDDSVFLFPPKPKDTLMISRTPEVTCVVVDVSEEDGEVKFNWYVDGVEVHNAKTKPREEQYNSTYRVVSVLTVLHQDWLNGKEYKCKVSNKALPAPIEKTISKAKGQPREPQVYTLPPSRDELTKNQVSLTCLVKGFYPSDIAVEWESNGQPENNYKTTPPVLDSDGSFFLYSKLTVDKSRWQQGNVFSCSVMHEALHNHYTQESLSLSP
# light: not shown
# notes: copies: 2 + 2
# B2: IL6R-BP269/IL6R-L (antibody, human IgG1, kappa)
# heavy: B1 heavy with Y298D
# light: not shown
# notes: copies: 2 + 2
# B3: IL6R-BP479/IL6R-L (antibody, human IgG1, kappa)
# heavy: B1 heavy with E235D, V266I, V268L, S269A
# light: not shown
# notes: copies: 2 + 2
# B4: IL6R-BP481/IL6R-L (antibody, human IgG1, kappa)
# heavy: B1 heavy with E235D, V266I, S269A
# light: not shown
# notes: copies: 2 + 2
# B5: IL6R-BP483/IL6R-L (antibody, human IgG1, kappa)
# heavy: B1 heavy with E235D, V268L, S269A
# light: not shown
# notes: copies: 2 + 2
# B6: IL6R-BP484/IL6R-L (antibody, human IgG1, kappa)
# heavy: B1 heavy with E235D, S269A, E271D
# light: not shown
# notes: copies: 2 + 2
# B7: IL6R-BP494/IL6R-L (antibody, human IgG1, kappa)
# heavy: B1 heavy with S269A, Y298D, A332R
# light: not shown
# notes: copies: 2 + 2
# B8: IL6R-BP504/IL6R-L (antibody, human IgG1, kappa)
# heavy: B1 heavy with E235D, V266I, S269A, E274P
# light: not shown
# notes: copies: 2 + 2
# B9: IL6R-BP505/IL6R-L (antibody, human IgG1, kappa)
# heavy: B1 heavy with E235D, V266I, S269A, E274D
# light: not shown
# notes: copies: 2 + 2
# B10: IL6R-BP508/IL6R-L (antibody, human IgG1, kappa)
# heavy: B1 heavy with E235D, V266I, S269A, E274P, Y298D
# light: not shown
# notes: copies: 2 + 2
# B11: IL6R-BP509/IL6R-L (antibody, human IgG1, kappa)
# heavy: B1 heavy with E235D, V266I, S269A, E274D, Y298D
# light: not shown
# notes: copies: 2 + 2
# B12: IL6R-BP531/IL6R-L (antibody, human IgG1, kappa)
# heavy: B1 heavy with E235D, V266I, S269G, Y298D, A332R, P398M
# light: not shown
# notes: copies: 2 + 2
# B13: IL6R-BP532/IL6R-L (antibody, human IgG1, kappa)
# heavy: B1 heavy with E235D, V266I, Y298D, A332R, P398M
# light: not shown
# notes: copies: 2 + 2
# B14: IL6R-BP534/IL6R-L (antibody, human IgG1, kappa)
# heavy: B1 heavy with E235D, V266I, Y298D, A332R, P398L
# light: not shown
# notes: copies: 2 + 2
# B15: IL6R-BP535/IL6R-L (antibody, human IgG1, kappa)
# heavy: B1 heavy with E235D, V266I, S269G, Y298D, A329G, A332R, P398M
# light: not shown
# notes: copies: 2 + 2
# B16: IL6R-BP537/IL6R-L (antibody, human IgG1, kappa)
# heavy: B1 heavy with V266I, S269G, A332R
# light: not shown
# notes: copies: 2 + 2
# B17: IL6R-BP549/IL6R-L (antibody, human IgG1, kappa)
# heavy: B1 heavy with S269G, A332R
# light: not shown
# notes: copies: 2 + 2
# B18: IL6R-BP552/IL6R-L (antibody, human IgG1, kappa)
# heavy: B1 heavy with E235D, V266I, S269A, E274D, Y298D, A332R
# light: not shown
# notes: copies: 2 + 2
# B19: IL6R-BP553/IL6R-L (antibody, human IgG1, kappa)
# heavy: B1 heavy with E235D, V266I, S269A, E274D, A332R
# light: not shown
# notes: copies: 2 + 2
# B20: IL6R-BP554/IL6R-L (antibody, human IgG1, kappa)
# heavy: B1 heavy with V266I, S269A, E274D, A332R
# light: not shown
# notes: copies: 2 + 2
# B21: IL6R-BP555/IL6R-L (antibody, human IgG1, kappa)
# heavy: B1 heavy with V266I, S269A, E274D, Y298D, A332R
# light: not shown
# notes: copies: 2 + 2
# B22: IL6R-2B002/IL6R-L (antibody, human IgG1, kappa)
# heavy: B1 heavy with E235D, D239G, E270H, G273P
# light: not shown
# notes: IgG1 type
# B23: IL6R-2B128/IL6R-L (antibody, human IgG1, kappa)
# heavy: B1 heavy with D239G, E270H, G273P, Y298D
# light: not shown
# notes: IgG1 type
# B24: IL6R-2B169/IL6R-L (antibody, human IgG1, kappa)
# heavy: B1 heavy with D239G, E270H, G273P, V325I
# light: not shown
# notes: IgG1 type
# B25: IL6R-BP110/IL6R-L (antibody, human IgG1, kappa)
# heavy: B1 heavy with D239G, E270N, G273P
# light: not shown
# notes: IgG1 type
# B26: IL6R-BP112/IL6R-L (antibody, human IgG1, kappa)
# heavy: B1 heavy with D239G, E270H
# light: not shown
# notes: IgG1 type
# B27: IL6R-BP121/IL6R-L (antibody, human IgG1, kappa)
# heavy: B1 heavy with D239G, E270H, G273P, K328Q
# light: not shown
# notes: IgG1 type
# B28: IL6R-BP136/IL6R-L (antibody, human IgG1, kappa)
# heavy: B1 heavy with D239G, E270H, G273P, K328A
# light: not shown
# notes: IgG1 type
# B29: IL6R-BP142/IL6R-L (antibody, human IgG1, kappa)
# heavy: B1 heavy with D239G, E270H, G273P, K328N
# light: not shown
# notes: IgG1 type
# B30: IL6R-BP912/IL6R-L (antibody, human IgG1, kappa)
# heavy: B1 heavy with D239G, E270H, G273P, A332R
# light: not shown
# notes: IgG1 type
# Target: T5, human FcγRIa extracellular domain with C-terminal His tag (human, UniProt P12314 16-292)
# T5 construct: extracellular domain
# T5 sequence (P12314 16-292): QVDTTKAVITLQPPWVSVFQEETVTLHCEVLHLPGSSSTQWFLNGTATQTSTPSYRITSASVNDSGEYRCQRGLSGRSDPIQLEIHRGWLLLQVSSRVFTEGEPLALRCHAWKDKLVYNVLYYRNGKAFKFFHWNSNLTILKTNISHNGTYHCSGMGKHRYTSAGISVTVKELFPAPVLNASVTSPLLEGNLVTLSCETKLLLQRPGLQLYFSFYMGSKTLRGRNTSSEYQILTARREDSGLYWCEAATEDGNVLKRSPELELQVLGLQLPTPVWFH
# Experiment: SPR (Biacore)
row,Binder,Kd
1,B1,10 nM
2,B2,14 nM
3,B3,5.3 nM
4,B4,1 nM
5,B5,1.3 nM
6,B6,0.82 nM
7,B7,3.9 nM
8,B8,1.4 nM
9,B9,1.1 nM
10,B10,1.4 nM
11,B11,1.1 nM
12,B12,9.4 nM
13,B13,12 nM
14,B14,9.3 nM
15,B15,11 nM
16,B16,29 nM
17,B17,18 nM
18,B18,3.2 nM
19,B19,3.4 nM
20,B20,8 nM
21,B21,9.4 nM

# Target: T1, human FcγRIIa type R extracellular …
# Experiment: SPR (Biacore)
row,Binder,Kd
1,B1,2000 nM
2,B2,2200 nM
3,B3,900 nM
4,B4,400 nM
5,B5,1300 nM
6,B6,780 nM
7,B7,250 nM
8,B8,450 nM
9,B9,430 nM
10,B10,540 nM
11,B11,520 nM
12,B12,120 nM
13,B13,94 nM
14,B14,91 nM
15,B15,92 nM
16,B16,270 nM
17,B17,570 nM
18,B18,97 nM
19,B19,86 nM
20,B21,160 nM

# Target: T2, human FcγRIIa type H extracellular …
# Experiment: SPR (Biacore)
row,Binder,Kd
1,B20,2300 nM

# Target: T3, human FcγRIIb extracellular domain with …
# Experiment: SPR (Biacore)
row,Binder,Kd
1,B1,120 nM
2,B2,110 nM
3,B3,56 nM
4,B4,19 nM
5,B5,78 nM
6,B6,46 nM
7,B7,6.6 nM
8,B8,24 nM
9,B9,21 nM
10,B10,21 nM
11,B11,18 nM
12,B12,3.8 nM
13,B13,3.2 nM
14,B14,3 nM
15,B15,4 nM
16,B16,6.9 nM
17,B17,16 nM
18,B18,2.6 nM
19,B19,3.1 nM
20,B21,4.1 nM

# Target: T3, human FcγRIIb extracellular domain with …
# Experiment: SPR (Biacore), ratio of KDs
Binder,KD(IIaH)/KD(IIb),KD(IIaR)/KD(IIb)
B1,375,17
B2,637,19.6
B3,268,16.1
B4,350,20.5
B5,231,16.8
B6,241,17.1
B7,821,38.6
B8,658,18.5
B9,514,20
B10,962,26
B11,444,29.2
B17,696,35.9

# Target: T1, human FcγRIIa type R extracellular …
# Experiment: SPR (Biacore), parent IL6R-B3/IL6R-L
row,Binder,KD(IIaR) parent/KD(IIaR) altered polypeptide
1,B1,0.5
2,B2,0.5
3,B3,1.2
4,B4,2.8
5,B5,0.8
6,B6,1.4
7,B7,4.3
8,B8,2.4
9,B9,2.6
10,B10,2
11,B11,2.1
12,B17,1.9

# Target: T3, human FcγRIIb extracellular domain with …
# Experiment: SPR (Biacore), parent IL6R-B3/IL6R-L
row,Binder,KD(IIb) parent/KD(IIb) altered polypeptide
1,B1,25.8
2,B2,27.4
3,B3,55.5
4,B4,160
5,B5,39.7
6,B6,67.8
7,B7,471
8,B8,128
9,B9,145
10,B10,149
11,B11,174
12,B17,196

# Target: T4, human FcγRIIb extracellular domain with …
# Experiment: SPR (Biacore), antibody captured, FcγR as analyte
Binder,KD(IIb) of parent polypeptide/KD(IIb) of altered polypeptide,Kd
B22,3.3 fold vs IL6R-B3/IL6R-L,–
B23,2.1 fold vs IL6R-B3/IL6R-L,–
B24,2.6 fold vs IL6R-B3/IL6R-L,–
B25,2.1 fold vs IL6R-B3/IL6R-L,–
B26,9.7 fold vs IL6R-B3/IL6R-L,–
B27,2.8 fold vs IL6R-B3/IL6R-L,–
B28,3.9 fold vs IL6R-B3/IL6R-L,800 nM
B29,2.6 fold vs IL6R-B3/IL6R-L,–
B30,2.1 fold vs IL6R-B3/IL6R-L,–
